Laboratory results as given in article PMC3919598.

Target: MUS81-EME1 complex (human) (UniProt Q96NY9)
Sequence of UniProt Q96NY9 (Q96NY9 whole entry, chain 1 of 2): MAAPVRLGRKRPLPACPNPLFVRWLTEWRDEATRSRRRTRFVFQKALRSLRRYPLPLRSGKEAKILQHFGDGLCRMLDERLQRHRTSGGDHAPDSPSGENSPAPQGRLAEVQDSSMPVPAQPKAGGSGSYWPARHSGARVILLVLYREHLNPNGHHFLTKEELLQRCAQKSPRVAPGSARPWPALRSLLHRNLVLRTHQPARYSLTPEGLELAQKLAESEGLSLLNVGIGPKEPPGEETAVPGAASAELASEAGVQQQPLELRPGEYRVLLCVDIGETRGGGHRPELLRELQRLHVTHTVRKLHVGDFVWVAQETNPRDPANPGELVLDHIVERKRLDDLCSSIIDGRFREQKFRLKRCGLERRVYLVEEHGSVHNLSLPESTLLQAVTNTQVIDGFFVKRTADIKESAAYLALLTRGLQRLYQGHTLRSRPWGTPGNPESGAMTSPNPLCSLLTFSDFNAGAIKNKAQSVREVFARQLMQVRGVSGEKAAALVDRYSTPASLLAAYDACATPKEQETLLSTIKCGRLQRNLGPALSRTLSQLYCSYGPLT
Sequence of UniProt Q96NY9 (Q96AY2 whole entry, chain 2 of 2, further chain): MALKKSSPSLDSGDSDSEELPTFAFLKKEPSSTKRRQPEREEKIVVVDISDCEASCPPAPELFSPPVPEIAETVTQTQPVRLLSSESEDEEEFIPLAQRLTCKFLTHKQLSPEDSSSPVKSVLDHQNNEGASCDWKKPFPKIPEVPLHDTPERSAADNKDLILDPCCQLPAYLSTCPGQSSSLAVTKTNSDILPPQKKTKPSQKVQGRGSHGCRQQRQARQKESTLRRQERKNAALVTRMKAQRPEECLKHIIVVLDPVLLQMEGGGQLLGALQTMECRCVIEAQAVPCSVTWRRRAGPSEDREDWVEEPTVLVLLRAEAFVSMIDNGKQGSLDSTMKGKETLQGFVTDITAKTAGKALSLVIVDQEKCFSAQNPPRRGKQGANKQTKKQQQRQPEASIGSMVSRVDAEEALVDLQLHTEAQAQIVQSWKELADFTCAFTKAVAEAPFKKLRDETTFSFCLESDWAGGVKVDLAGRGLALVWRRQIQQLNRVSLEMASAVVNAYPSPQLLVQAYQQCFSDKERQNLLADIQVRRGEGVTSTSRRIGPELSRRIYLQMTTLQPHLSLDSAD

B1: Fanconi anemia complementation group A protein (FANCA) (natural protein)
chain: MSDSWVPNSASGQDPGGRRRAWAELLAGRVKREKYNPERAQKLKESAVRLLRSHQDLNALLLEVEGPLCKKLSLSKVIDCDSSEAYANHSSSFIGSALQDQASRLGVPVGILSAGMVASSVGQICTAPAETSHPVLLTVEQRKKLSSLLEFAQYLLAHSMFSRLSFCQELWKIQSSLLLEAVWHLHVQGIVSLQELLESHPDMHAVGSWLFRNLCCLCEQMEASCQHADVARAMLSDFVQMFVLRGFQKNSDLRRTVEPEKMPQVTVDVLQRMLIFALDALAAGVQEESSTHKIVRCWFGVFSGHTLGSVISTDPLKRFFSHTLTQILTHSPVLKASDAVQMQREWSFARTHPLLTSLYRRLFVMLSAEELVGHLQEVLETQEVHWQRVLSFVSALVVCFPEAQQLLEDWVARLMAQAFESCQLDSMVTAFLVVRQAALEGPSAFLSYADWFKASFGSTRGYHGCSKKALVFLFTFLSELVPFESPRYLQVHILHPPLVPGKYRSLLTDYISLAKTRLADLKVSIENMGLYEDLSSAGDITEPHSQALQDVEKAIMVFEHTGNIPVTVMEASIFRRPYYVSHFLPALLTPRVLPKVPDSRVAFIESLKRADKIPPSLYSTYCQACSAAEEKPEDAALGVRAEPNSAEEPLGQLTAALGELRASMTDPSQRDVISAQVAVISERLRAVLGHNEDDSSVEISKIQLSINTPRLEPREHMAVDLLLTSFCQNLMAASSVAPPERQGPWAALFVRTMCGRVLPAVLTRLCQLLRHQGPSLSAPHVLGLAALAVHLGESRSALPEVDVGPPAPGAGLPVPALFDSLLTCRTRDSLFFCLKFCTAAISYSLCKFSSQSRDTLCSCLSPGLIKKFQFLMFRLFSEARQPLSEEDVASLSWRPLHLPSADWQRAALSLWTHRTFREVLKEEDVHLTYQDWLHLELEIQPEADALSDTERQDFHQWAIHEHFLPESSASGGCDGDLQAACTILVNALMDFHQSSRSYDHSENSDLVFGGRTGNEDIISRLQEMVADLELQQDLIVPLGHTPSQEHFLFEIFRRRLQALTSGWSVAASLQRQRELLMYKRILLRLPSSVLCGSSFQAEQPITARCEQFFHLVNSEMRNFCSHGGALTQDITAHFFRGLLNACLRSRDPSLMVDFILAKCQTKCPLILTSALVWWPSLEPVLLCRWRRHCQSPLPRELQKLQEGRQFASDFLSPEAASPAPNPDWLSAAALHFAIQQVREENIRKQLKKLDCEREELLVFLFFFSLMGLLSSHLTSNSTTDLPKAFHVCAAILECLEKRKISWLALFQLTESDLRLGRLLLRVAPDQHTRLLPFAFYSLLSYFHEDAAIREEAFLHVAVDMYLKLVQLFVAGDTSTVSPPAGRSLELKGQGNPVELITKARLFLLQLIPRCPKKSFSHVAELLADRGDCDPEVSAALQSRQQAAPDADLSQEPHLF
- MUS81-EME1-mediated incision of psoralen ICL-damaged 3' ssDNA branch substrate (1.5 nM MUS81-EME1; FANCA 0-20 nM), fold stimulation: 14 fold
- MUS81-EME1-mediated incision of undamaged DNA (1.5 nM MUS81-EME1; FANCA 0-20 nM): enhanced up to 5 nM FANCA (Phase I), inhibited from 10 to 20 nM and abrogated at 20 nM FANCA (Phase II): 3 fold
